Laboratory results as given in the supplement of paper PMC9170038.

System: MS2 coat protein
Test: apparent KD of MS2 coat protein; designed switch direction (-1 OFF switch, 1 ON switch): -1; higher = weaker reporter binding
Outline: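 An oligonucleotide input, 200 uM small-molecule ligand, or no input was present during titration of SNAP-549-labelled MS2 coat protein, which was doubled from 0.7 or 1.5 nM to 3 µM. Designed RNA switches had been transcribed on Illumina chips by stalled E. coli RNA polymerase. Apparent KD per design is the median over clusters of curves fitted to normalised cluster fluorescence.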

[1] = Eterna round: R95, input ligand: FMN 200 uM
[2] = Eterna round: R95, input ligand: microRNA oligo, concentration not stated
[3] = Eterna round: R95, input ligand: none
[4] = input ligand: microRNA oligo, concentration not stated

| Sequence | apparent KD of MS2 coat protein [1] [nM] | apparent KD of MS2 coat protein [2] [nM] | apparent KD of MS2 coat protein [3] [nM] | apparent KD of MS2 coat protein (input ligand: FMN 200 uM) [nM] | apparent KD of MS2 coat protein [4] [nM] | apparent KD of MS2 coat protein (input ligand: none) [nM] |
| --- | --- | --- | --- | --- | --- | --- |
| AUAUUAACAUAGGAUAUCGAAUAAAUUAUUUAACGAGAAGGAUGAACAUGAGGAUCACCCAUGUGGUAUCAUGG [Mat - Exclusion 6 - JL Mod - D29] (puzzle: Exclusion 6) | 153 | 236 | 411 |  |  |  |
| GCACGGAUGGUAGGAUAUCUGUGCGAUUAGCUCAGAGAAGGACCACAUGAGGAUCACCCAUGUACCUCAAUUAGCUUUCCGUGC [Eli exng1 - 020] (Eterna round: R96, puzzle: Exclusion NG 1) |  |  |  | 40.7 | 11 | 15.2 |
| GCUCUUGGGCAAGGAUAUCCUGCGCGGUUCCGGUUCGUGUCUGUCACAUGAGGAUCACCCAUGUGGGAGAAGGUGCCUGCGGUG [Design 74] (Eterna round: R96, puzzle: Exclusion NG 2) |  |  |  | 28.6 | 12.3 | 15.9 |
| UAUUAGCAAGCGAGAUCCCACAUGAGGAUCACCCAUGUGCUCGUCUUAAGCCCAGAAUUACUGGGCGCUCGUCUUAU [Winner reversed engineered 20] (Eterna round: R97, puzzle: Sensor, turn-off variant 1) |  |  |  | 13.1 |  | 12.7 |
| GUCACAUGGACAUAGGAUCACAUGAGGAUCACCCAUGUGACUAACAAGCUUUUUGUUCGUCUUAUGUCCAUGUGAAA [Stov1/15-B2] (Eterna round: R97, puzzle: Sensor, turn-off variant 1) |  |  |  | 15.3 |  | 11.2 |
| GGCCUACAUGAGGAUCACCCAUGUAAGGAUAUCAAGUCGGGCUCCAAGGAAGCCCAUAUGAGAAGGUAUUUGGG [Eternabot (L2) Solution 32] (Eterna round: R97, puzzle: Exclusion 1) |  |  |  | 116 |  | 25.3 |
| AAAAAAAAGUGAGGAUAUGGAAAUUUGGUGAUAACAUGAGGAUCACCCAUGUGAAAACAAUAAAAUUAGAAGGUAUAAAAAAAA [AK ExNG2-1] (Eterna round: R96, puzzle: Exclusion NG 2) |  |  |  | 122 | 73.1 | 98.8 |
| AGUACUAACACGAAAGUGUUAGUACAAUAAGCUUGUGAAACAUGAGGAUCACCCAUGUCCUCAUAAGCUCGUCUUAU [Mat - Sensor v2 -ver2- JL mod - D68] (Eterna round: R96, puzzle: Sensor v2, turn-off variant 2) |  |  |  | 15.4 | 468 | 17.6 |
| AAAUAGCUAGAGGAUAUUGGAUAGGAUUUAGUGCGAGAAGGCUAGACAUGAGGAUCACCCAUGUUGUGUUGGGA [EX6 #14] (Eterna round: R97, puzzle: Exclusion 6) |  |  |  | 82.3 |  | 50.3 |
| ACAUGAGGAUCACCCAUGUAAUCAUGAUGGCUGAUGUAGAGUCAGGAUAUGUGUGGCUUUCUAUCGCAGAAGGGACAAGACUGG [Deportation 35 - Jieux - Exclusion NG 3] (Eterna round: R96, puzzle: Exclusion NG 3) |  |  |  | 45.6 | 37.7 | 43.4 |
| CUCUUGUCAGGAUAUUAUGGACGAUAGCAGGACUACGUCAGUGAGAAGGGACAUGAGGAUCACCCAUGUAAAAU [Anqubi] (puzzle: Exclusion 4) |  | 72.6 |  |  |  |  |
| ACAGCGUGAGGAUAUACAUGAGGAUCACCCAUGUGUGGCAGGUUAUCCUGUCAUAAGUGUAGAAGGCACGCUGU [Exclusion 3 - Oddities v.6 ( A small slide from ms2 to fmn)] (puzzle: Exclusion 3) |  | 37.2 |  |  |  |  |
| UGAGUGCUGCGAGGAUAUACAUGAGGAUCACCCAUGUAAUCGUGUGAGGCUUUGCCUCACACGAAGUAGAAGGCGCAGUACUCU [JL ENG2 1.10] (Eterna round: R96, puzzle: Exclusion NG 2) |  |  |  | 12 | 9.84 | 13.5 |
| AAAAGGUCAGGAUAUGCGAGCGGCAGGGAGGCAGGUCGGUGGCAGAAGGGACAUGAGGAUCACCCAUGUUAAAA [Excls4-II] (puzzle: Exclusion 4) |  | 29.2 |  |  |  |  |
| CUCUUGUGAGGAUAUCUCCCAGCGAUUAAUUGGGCAGUCUGAGAGAAGGUACAUGAGGAUCACCCAUGUGAUAG [Eternabot (L1) Solution 73] (Eterna round: R97, puzzle: Exclusion 4) |  |  |  | 69.3 |  | 61.7 |
| GUGUGCACGCUGCGAUCCUACAUGAGGAUCACCCAUGUGGUCUGGUGGCGUGGGUCACCGGACUUGGCUCGUCUUGG [salish99_S_TOV1_R5_077] (Eterna round: R97, puzzle: Sensor, turn-off variant 1) |  |  |  | 171 |  | 169 |
| CGUGACUCAGGAUAUCUAUAGUGUCACAUGAGGAUCACCCAUGUCCAGCGAAAGCUGGAGGGAGAAGGGAGUCACG [Fiskers Ex 5 - 43] (Eterna round: R96, puzzle: Exclusion 5) |  |  |  | 43.1 | 71.5 | 87.7 |

| Sequence | apparent KD of MS2 coat protein [1] [nM] | apparent KD of MS2 coat protein [2] [nM] | apparent KD of MS2 coat protein [3] [nM] | apparent KD of MS2 coat protein (input ligand: FMN 200 uM) [nM] | apparent KD of MS2 coat protein [4] [nM] | apparent KD of MS2 coat protein (input ligand: none) [nM] |
| --- | --- | --- | --- | --- | --- | --- |
| AGCCACAGAGGAUAUACAUACAUCCAGUAGUAGAUACUACUACAUGAGGAUCACCCAUGUAGAAGGCUGUGGCA [Omei Ex2 BD B17] (Eterna round: R97, puzzle: Exclusion 2) |  |  |  | 603 |  | 162 |
| UAUUGGAUAGGAUAUACAUGAGGAUCACCCAUGUGGACGGCUAAGCCUACCGCGCAGAGUAGAAGGGUCGGGUG [Eternabot (L1) Solution 66] (Eterna round: R97, puzzle: Exclusion 3) |  |  |  | 161 |  | 155 |
| AGUUGGCGAGGAUAUACAUGAGGAUCACCCAUGUGAAGAAGAAUAGUGAGGAAGAAAAGUAGAAGGCGCUGACA [Mat - Exclusion 3 - Mod of Salish D37] (Eterna round: R96, puzzle: Exclusion 3) |  |  |  | 412 | 33.6 | 48.5 |
| UCCUUACUGGUCAGGAUAUACAGUCGCGGGUGGGUGUAGAAGGGACAUGAGGAUCACCCAUGUACGUUACAGCC [alecazam54i] (Eterna round: R97, puzzle: Brourd's mod of Exclusion 4) |  |  |  | 27.6 |  | 30.2 |
| UUUAAUUUUUUUUUUUUACAAGCUUUUUGCUCGUCUUAUACAUGAGGAUCACCCAUGUGGGUAGAGGAUAAAUUAUC [JMF 28] (puzzle: Sensor v3, turn-off variant 2) | 38.7 | 61.1 | 36.2 |  |  |  |
| GACCUCCCUGUAAGGAUAUCCAUGCAUCAAAGCAUGGAGAAGGUACAUGAGGAUCACCCAUGUCACCCGCGUUA (Eterna round: R97, puzzle: Brourd's mod of Exclusion 4) |  |  |  | 20.7 |  | 15 |
| CCAUUCAGAGGAUAUGCGCAUAAAUAAAACUUUUUUUUUUAACAUGAGGAUCACCCAUGUAGAAGGCUGUAACC [Ex2 #45] (Eterna round: R97, puzzle: Exclusion 2) |  |  |  | 27.2 |  | 26.7 |
| AUGCGUGGCUAGGAUAUCGAGGAAUUUAGCCAGCGAGAAGGAGCCACAUGAGGAUCACCCAUGUGGUGAACCUU [jl-ex6-4.64 ViennaUCT mod] (Eterna round: R97, puzzle: Exclusion 6) |  |  |  | 14.5 |  | 15.8 |
| UUGACGGCAGGAUAUACAUGAGGAUCACCCAUGUAAAUUUUUCGUUUAACUUGAAUGUGUAGAAGGGCCCAACC [Ex3 #78] (Eterna round: R97, puzzle: Exclusion 3) |  |  |  | 16.6 |  | 17.8 |
| UAUUAAGCAAGCAGAUCCCACAUGAGGAUCACCCAUGUGCUCGUCUUAUAAGGUACUGUGACGAGAGUCACGGUACC [Mat - Sensor, turn-off var - Eli Mod - D69] (Eterna round: R97, puzzle: Sensor, turn-off variant 1) |  |  |  | 165 |  | 129 |
| GUUUCACAUGAGGAUCACCCAUGUGAGGAUAUACAUUUGUUAACCGUAGUUAAUAGAUGUAGAAGGCGCGUGAU [JRxlusion 4 - Jieux - Exclusion 1] (Eterna round: R97, puzzle: Exclusion 1) |  |  |  | 50.6 |  | 62.6 |
| UAUUAGCAAGCGAGAUCCCACAUGAGGAUCACCCAUGUGCUCGUCUUAUAAGGUACUGUGACGAAAGUCACGGUACC [Sensor 3, v1 - 91] (puzzle: Sensor v3, turn-off variant 1) | 12.6 | 441 | 10.8 |  |  |  |
| UGCAUGCUAGGAUAUACGAAACAUUAGGGUUCUUCGUAUGAACAUGAGGAUCACCCAUGUAGAAGGAGCGUGCU [Mod9 of JL-ex2-2.15 mat747 mod] (puzzle: Exclusion 2) |  | 31.1 |  |  |  |  |
| AGCCUGUAAUCCCUCAGACAUGAGGAUCACCCAUGUGGAUGUAAGGAUAUAGGUGCAAUUGCAAUCUAGAAGGUACGCCGUCAG [Eternabot solution 32] (Eterna round: R96, puzzle: Exclusion NG 3) |  |  |  | 44.8 | 23.1 | 31.4 |
| UCUCUUGGGCAAGGAUAUCCUGCGCGGUUCCGGUUCGUGUCUGUCACAUGAGGAUCACCCAUGUGGGAGAAGGUGCCUGCGGUC [Design 77] (Eterna round: R96, puzzle: Exclusion NG 2) |  |  |  | 24.5 | 12 | 16.7 |
| GAGUCCUUGGUGAGGAUAUGGCGAGGAGCACUUGUCCAGAAGGCACAUGAGGAUCACCCAUGUUCUAGUAAUUG [Eternabot (L2) Solution 75] (Eterna round: R97, puzzle: Brourd's mod of Exclusion 4) |  |  |  | 77.2 |  | 30.2 |
